Experiments:
[1] = target: T1, Monomeric sAXL, the soluble extracellular domain of AXL (human, UniProt P30530); assay: SEC-SAXS; SWING beamline (SOLEIL), HPLC mode; BioSEC-3 300 or BioSEC-5 1000 column in PBS or 10 mM histidine, 150 mM NaCl, pH 6; proteins alone and mixed, in solution; conditions: both partners purified
T1 construct: AXL receptor tyrosine kinase, human, soluble extracellular domain released from AXL-Fc by papain; also called monomeric AXL extracellular domain; source: papain digestion of AXL-Fc (Evitria), followed by protein A purification; not shown: Fc, C-terminal, cleaved

[2] = target: T2, Human AXL-Fc containing the entire extracellular domain of human AXL (Homo sapiens, UniProt P30530); assay: as above; conditions: both partners purified
T2 construct: AXL receptor tyrosine kinase, human, entire extracellular domain (two Ig-like and two fibronectin type III domains); Dimer through the C-terminal Fc; also called dimeric AXL-Fc; source: bought: Evitria (Switzerland); not shown: Fc, C-terminal, kept
T2 sequence (P30530 26-451): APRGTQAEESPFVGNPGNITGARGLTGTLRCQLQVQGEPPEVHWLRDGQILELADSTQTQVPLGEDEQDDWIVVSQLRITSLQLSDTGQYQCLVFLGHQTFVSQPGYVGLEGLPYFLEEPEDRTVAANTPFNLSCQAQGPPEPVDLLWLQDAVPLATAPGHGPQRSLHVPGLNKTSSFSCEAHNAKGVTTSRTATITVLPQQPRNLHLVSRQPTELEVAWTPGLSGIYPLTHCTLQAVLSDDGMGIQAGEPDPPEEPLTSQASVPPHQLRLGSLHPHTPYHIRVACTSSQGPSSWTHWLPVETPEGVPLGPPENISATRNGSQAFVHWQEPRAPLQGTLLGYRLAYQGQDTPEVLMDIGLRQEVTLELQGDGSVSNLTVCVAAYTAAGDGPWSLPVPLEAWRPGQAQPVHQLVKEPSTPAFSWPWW

T1 sequence (P30530 26-451): as above

B1: Fab fragment of tilvestamab (Fab, V domains shown)
VH: EVQLVESGGGLVQPGGSLRLSCAASGYSFTDFYINWVRQAPGKGLEWVARIFPGGDNTYYNEKFKGRFTLSADTSKSTAYLQMNSLRAEDTAVYYCARRGLYYAMDYWGQGTLVTVSS
VL: DIQMTQSPSSLSASVGDRVTITCRSSQSLVHSNGIPYLHWYQQKPGKAPKLLIYRVSNRFSGVPSRFSGSGSGTDFTLTISSLQPEDFATYYCSQGTHVPPTFGQGTKVEIK
notes: heavy chain (HC) of the Fab; light chain (LC) of the Fab; also called tilvestamab Fab; source: papain proteolysis of tilvestamab (immobilized papain), MabSelect SuRe column
Which results are given for B1?
stoichiometry N [1]: 1 Fab per sAXL (1:1); stoichiometry N [2]: 1 Fab per AXL-Fc chain (2:2)

Reference: paper PMC12809806, “Structural Analysis of Tilvestamab in Complex with AXL” (ACS Omega, 2025)
